Test results reported in the supplement of paper PMC12042874.
± gives the uncertainty stated by the source.

Assay: amyloid nucleation score (Sup35N fusion, yeast selection) (log enrichment); library NNK1; higher = more nucleation; inactive = no reads after selection
Procedure, shortened: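 DiMSum was used to calculate nucleation scores as log enrichment of output over input reads, centred on the mode score of non-aggregating sequences. Sequences with fewer than 100 input reads were not scored. Input and output came from Illumina sequencing of plasmid inserts in psi-negative yeast expressing peptides of 20 random codons fused to Sup35N, induced 24 hours with 100 μM copper sulfate and then grown 7 days at 30°C on medium lacking adenine and uracil.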

Substance	amyloid nucleation score
CMKYMLCARKYFKSYSWLLS	1.04 ± 0.73
CMLDGALLLILVVFTIPCLN	0.909 ± 0.6
CMMMYVCLLSSGHVGMSLGV	0.18 ± 0.43
CMSLFRYENVQYLFTRIHSI	1.43 ± 0.34
CMWWSCGSNIVYVALLMWCH	-0.191 ± 0.4
CNCAKSNVRCLFLFFDGQTR	0.775 ± 0.92
CNCMVLSPLDVMEPIAMGFQ	0.455 ± 1.4
CNISAITRFTEIWSRVTSVF	1.59 ± 0.8
CNMKNDLTRGNSRFCNLCCN	0.85 ± 0.53
CNTLDLMAFNSLYLSPVSTC	inactive
CNWATLTMWLLSCIRPTPRS	-1.1 ± 2.4
CNWVIRNPYVGPIRSNVHGS	0.124 ± 0.58
CPASKFDQGP	-0.038 ± 0.81
CPLSNGSVRVNDGATTLAWL	-0.956 ± 2.1
CPRPYDRSALSRKLY	0.713 ± 0.32
CPSEYQIAGMIASSYMHLGE	0.872 ± 0.33
CPTEGGLVWSYWSLS	1.09 ± 0.83
CPVKGFLSVTACDYL	-0.384 ± 0.57
CQFDVGAQLAYYGR	inactive
CQQVLWS	0.039 ± 0.79
CRASFACERDNIS	0.547 ± 0.31
CRCAPYSNGKTGIHARLFNT	0.794 ± 1.1
CRLFVFPF	-0.336 ± 1.4
CRMTGSFKSTCRSKGLASCS	0.002 ± 0.3
CRNLFMWDIRRGKYITARKK	-0.779 ± 1.6
CRNWKWSRRFYYGERNGGRL	0.416 ± 0.81

Substance	amyloid nucleation score
CRRRMFLQVPRIYFEMRSYA	0.492 ± 0.91
CRSTYDQLPEYLST	-0.117 ± 0.56
CRTCGFPLLYSAELVLEVC	0.018 ± 0.45
CRWSVLGREFSSQFVCWEDW	-0.59 ± 0.54
CRYPWRH	-0.042 ± 0.6
CSAASVCPGD	-0.116 ± 1.5
CSCEVNMRLIGCKK	-0.253 ± 1.2
CSCYRFLGDSKWIRHHINRT	-0.679 ± 0.85
CSFFTKDSDTP	0.327 ± 0.3
CSGNLVMVLSAACAKVGYLV	-1.48 ± 1.7
CSGWMNGLSRVKPAHL	inactive
CSHGNYHITCCPHAFFMTAI	4.91 ± 0.098
CSKSS	-0.909 ± 2.7
CSLSETFPKVYFMWTQRSYV	-1.36 ± 2.4
CSNLM	-0.675 ± 0.66
CSNVGVCGMSIH	5.01 ± 0.052
CSSALGIMKWTRIYVCRGRG	1.6 ± 0.24
CSVFWCFVLGLVNRNLLKRS	-0.928 ± 0.4
CSWAASY	-0.689 ± 1.9
CSWLSFVEEVGLGSERGVRG	-0.629 ± 1
CSYRWVELLCSC	3.93 ± 0.11
CTGFLRVWPLGEMYEDRR	0.12 ± 0.58
CTMSTSMPHRAVRRELSSIE	0.052 ± 0.3
CTPFMRTSLSFICSDSSVML	0.771 ± 0.82
CTSVRVLGSNQCSYGVSKCR	-0.39 ± 0.39
CTVDMEGFGFSRIVVDRGRS	-0.118 ± 0.6

Substance	amyloid nucleation score
CTVMDRLLTQEPTNRRWSRY	0.06 ± 0.84
CTYTAPYAPSLMPGPRVGYI	inactive
CVFSVRYALDRWDPTKCEVG	0.325 ± 0.43
CVFVRVF	inactive
CVFYGFWYFGW	0.145 ± 0.34
CVGDFVME	-0.318 ± 0.98
CVHQIVGLTRIPFGWELSWR	-1.62 ± 1.7
CVIRKSLFKCQFSMIRESWV	0.298 ± 0.31
CVKLGYYWSF	0.598 ± 0.16
CVLRMNVFDSKGFWVGYRRD	0.602 ± 0.41
CVLSPALFMRARLLRGILGR	0.332 ± 0.72
CVMWGTLRFLNLASGLFLCA	0.778 ± 0.93
CVNKPLNGHLANMSWRGY	1.15 ± 0.57
CVPSVRNSVMW	-0.181 ± 0.88
CVRFDSVNCHHLF	0.238 ± 0.24
CVSHFIHCDWLGQRL	0.135 ± 0.26
CVSYNLFLWSYFKRWSNRTC	0.141 ± 0.79
CVVRVWVYRGGKYVYLEKAP	-1.48 ± 1.4
CWAKEFFNNESIRG	0.077 ± 0.49
CWDKRLNSY	0.688 ± 0.61
CWIMYDYSSPGLFL	-1.1 ± 1.6
CWPRWNSVSLGSLSILLCFF	3.77 ± 0.11
CWQSGMCNRSRMQAVRVPHD	0.698 ± 0.56
CWRFRPFRPASIKFTQYNNH	4.49 ± 0.072
CYAPSGLLNLPNASFS	-1.26 ± 1.5
CYATMYAQGDRRSGDGCLPT	-1.86 ± 1.4

Substance	amyloid nucleation score
CYCFGQCWYDYVCIELLIGR	5.06 ± 0.052
CYDGDRFIEEA	0.364 ± 0.66
CYEEPRMPNFFAVFYNSMLE	0.144 ± 0.41
CYFVCNDHCYFYQSLLQTHE	5.32 ± 0.058
CYGFLVSMMSYLSLVELVFL	-0.04 ± 0.26
CYKPPLWMMYLLLRRDVYRD	inactive
CYKVFPVVSYKVGGASLTAR	0.105 ± 0.31
CYLACLLQTHYND	-1.18 ± 2.7
CYPPEVF	1.31 ± 0.67
CYSQDRSRLVSEDYY	-0.525 ± 0.34
CYSWHGVYRGYVYSSYNNYV	0.77 ± 0.52
DAFIV	-0.684 ± 0.54
DAGNVLARLDGFNAG	-0.121 ± 0.49
DALDLRSWQGEL	-0.274 ± 1.7
DALII	0.257 ± 0.4
DAQFGRHVLGLFFSRQEMLV	-1.52 ± 1.2
DARLC	-0.226 ± 1
DCGRWNRKRPNSVLGVYL	1.48 ± 0.88
DCHVRCLRQV	0.611 ± 0.35
DCPSS	0.537 ± 0.29
DCQVAVPLRIVKANSVILCG	0.26 ± 0.37
DDCRMYAFL	0.776 ± 0.36
DDFAMLE	inactive
DDRLLCI	-1.85 ± 2.1
DDSFVLFW	-0.042 ± 0.55
DDWAGLKFSYLWSVCCKWWD	2.52 ± 0.15

Substance	amyloid nucleation score
DEITLMLA	0.155 ± 0.35
DERNACLSSFGVNLRLIKLS	-0.002 ± 0.4
DFFGWTNRNHQNSDSFLWDG	0.69 ± 0.41
DFGLCHAQNSITQAPDR	-0.153 ± 0.93
DFKVAL	-0.644 ± 0.35
DFLKGLFIRFRKSNFE	-1.11 ± 1.7
DFPVAIVDLRVCWSYLL	0.526 ± 0.68
DFSSNDGWV	0.444 ± 0.47
DFTVA	0.596 ± 0.78
DFVMLEV	-0.594 ± 0.68
DFVRRSNRYRYIVKIV	0.203 ± 0.39
DFYNETVTFFTHKIVINNWT	2.17 ± 0.31
DGGICYD	0.733 ± 0.31
DGGLCFLSMTTIIGGDTLDR	0.018 ± 0.34
DGLLTGLQDRPNSSRFKYVM	0.421 ± 0.33
DGLTLFLSRNGDYYSFTKIT	0.197 ± 0.46
DGMVALYVGYATSLVTWAK	0.65 ± 0.56
DGTNAYV	-0.986 ± 0.56
DHGFLGE	-0.172 ± 0.76
DHHQGMM	-0.213 ± 1.2
DHVDYSILNYSPMFDCVKFC	0.028 ± 0.27
DHWSASIVIPVWSERNNSFG	-0.373 ± 1.4
DHYYVVAFFRQLWRCCLFRV	inactive
DIGHFHGTDMGCNIF	inactive
DIITFHYLRTARLKGRYLFI	inactive
DIIWMFWRIINSPFFTQSVV	-0.176 ± 0.26
